Results: the DeepSol protein solubility set

experiment: soluble on expression in E. coli; label from the status in PepcDB or PDB records

Soluble on expression in E. coli, not soluble:
MGSDKIHHHHHHMNPQPSGATVDKGSVNPEQISIKTFGGLGLSYLNSPMTILWESQKARILFCYLLISYDQWLHRDKLIDMLWPGCDPVSGAKNFKTTLSRLRKSFMGPRSINPIMTLGEAIRLDFNIFSLDSSQFKGYAQTGIKMLARGDISGARRYLEAAQDEYSGEFLPEEPFDHHICAERAELERLHESVLTSLQKVYQLEGNNDAVEAISFLKAVHTNS
MGSDKIHHHHHHMNQFHLTEDQQDCLQELINIAMGQASDQLARYLDTFVYLKVPSIESVEAKDLMKTLSQQKNTVAVVSQGFFGYEGIRGEALLVYKEENSGRIADLLGYEPDELSQDEQLIDISSILTTTFLNVFAQQINNQLSYNAPKLLPNVQEILSEHLQQMPFTWDLALKVNINYQVTDYSFNCNMILLIPETAITNIKHVLDRILEEF
MGSDKIHHHHHHMNRAREINYLNSIALHQPFGIVGVSGETGIGKTTVLNFVNPEGVFTVRVNISLRDSMESILYDLLHSLALSLEKVEEVSDLAKEVRKWITDEVSTIKGFSLGVSFGVNASLTHEKSIRPRFNFFKAREKLGELIKQTVQRKGKFLLIIDELDKEKKEDVLRVIDSIKNFIIMEDFVVILSLPFSIYREYAADRLRWNEAGNLENIFTDIVFVEPLKKLEIKELIIKRLGSYIELIEDGVLDIVADFSDGNPRDGLWILTKAIYDNIHKELLSKEDLINTINRTISEYTGLTLNLTENQKKAIRVLRGSVYSREKIIETLQKEGFKRTTAYSVMDQLLQKRILLVEKEGYRISGKFSYMEI
MGSDKIHHHHHHMNRLGKALPPLASLMPFEAAARLESFSRAADELHLTQAAISRQIRALEDDLGVALFERRNRGVFLTAAGREFGRTVSAALEGIAAQANALRQEVHDGVVVLFCQLCEAFYWVMPRLASLNRRHPELEVRLVTSTRPVVEHHDYFDVALQTSGRPSGSHALAFTASDEIFPICSPGYLAAQPRPITLASLPEHCLLHHEADPPDWFEWDSWLRAMGNFAPALGNGMVFDSYPLVLQAALAGHGIALGWRRSAEHLIQSGQLVRPLSMSLPLDNALSVYTRHGAQPRAETLALLDWLQREFRRDDQTTPA
MGSDKIHHHHHHMNRLIRTGVLGFLVWLAGCGHAPVQEKPTPEELKQRALQSAKIHTELAGQYYHRGQYRVAIEEAEIALQKKTDYAPAYNMLGLVYMDLQEDDRAEWNFERGLGITPNDPDIRNNFGWFLCQRKPDGIEQAIGHFMAAVRDPLYETPERTYTNAGLCVLKQNDFERAQSYFQEALVIRPGYPLARLGLVELDFSRGEVKKAWAAINRYLQTYPPAPGSLWLAVRIARANGDVNAETNYAFQLQKRFPDSREARESRAGRLNHER
MGSDKIHHHHHHMNRVVVGLQWGDEGKGKVVTYLSRYHDIVARFSGGANAGHTVNYGDFKVIHHLLPSADFTKNRGIAIGSGVLLDPQVLTEELRELKEKFPDYSGEIFISESAHVVLPVHKEMDRIIDEVLKIGTTKRGIGPACADRVMRVNVRVAELGNEEKLRYFLEKNLSLKKIYGVDFDAEKMMGDLSTFYETIKDFVVSPVQLKRILEEKSVLFEGTQGVLLDLDVGTYPYVTSMNCSSSGVSAGMGFPVEVDEVLGVFKAYTTRVGEGPFPTELTGEEGEKLRKAGHEYGSTTGRPRRCGWLDLPLLRYAIEISGVDSLVMTKADVLNGFEKIKVCVRYSDGRDLVSLRDLEKKEPVYEVFDGWKSLEDKNFERFVDFIERETGRPVRYISTGEKLEDIVEV
MGSDKIHHHHHHMNSSHGTSSSGASAGAHGALPLEAQKLNGWGRTAPTTAEVLTTPDLDIIVDAVRQVAEQNDSKPDYLKRGVIARGMGRSYGDPAQNAGGLVIDMQPLNKIHSIDPDSAIVDVDGGVTLDQLMKAALPYGLWVPVLPGTRQVTIGGAIGPDIHGKNHHSAGSFGDHVVSMELLVADGRILHLEPEGTAEDPQGDLFWATVGGMGLTGIIVRARIRMTKTETAYFIADTDRTNNLEETVAFHSDGSEHNYTYSSAWFDVISPEPKLGRSTISRGSLATLAQLEELAPKLAKDPLKFNAPQLMKVPDIFPSWTLNKLTLSAVGVAYYAMGAPAKNQVKNLTQFYQPLDLIGEWNRGYGSKGFLQYQFVVPTEAVEPFKDIIRDMQKSGHYSALNVFKLFGPGNRAPLSYPMPGWNVCVDFPIRPGLGAFLDDLDKRVMEFGGRLYLAKESRTSAENFHAMYPGMEGWLKTRNEIDPTGVFASDMSRRLELS
MGSDKIHHHHHHMNTLVLPKTQHLVVFQEVIRSGSIGSAAKSLGLTQPAVSKIISDVEAYFGVELIVRKNTGVTLTEAGQVLLSWSESITREMKNMINEMNSMTCNTVVDVSFGFPSLIGFTFMSDMIHKFKEVFPKAQVSMYEAQLSSFLPALRDGRLDFAIGTLSNEMQLQDLHVEPLFESEFVLVASKSRTCTGTITLESLKDEQWVLPQTNMGYYSELLTTLQRNGISIENIVKTDSVVTIYNLVLNADFLTVIPCDMTTPFGSNQFITIPIQDTLPVARYAAVWSKNYRIKKAASVLVELAKQYSSYNGCRRRQLIEIE
MGSDKIHHHHHHMNTTHAVPSITPNNDPWEAYDDIKMFGKPTLTNIEVTTTTLCNMRCEHCAVGYTLQTKDPDALPLDLLLRRLDEIPHLRAFSITGGEPMLSKKSVESYVVPLLRYAHERGARTQINSNLTLNIERYEKILPYLDVLHISHNYGSINDFTDIGFAVMERKPSIEQREALFHRMVENAKMLTQEGVFVSAETMINKRTLPHLEKIHEQIVSMGCQRHEVHPMYPSDFASALDVASLDEIRKGIHRLLDARDKKTWMLFGTLPFYPCSDQEEDLMLLKRLYGEPNVTVRNDPDGRSRLNVNLFDGNIIVTDFGDTPPLGNIMTTSFIEAYEKWQHSEISKELSCHCPMAECLGPNILVKNTYYRGVDFHKRKAVLHK
MGSDKIHHHHHHMNTTNQTAPQGFRLNALGHAVPESQIKEIDKLRDELVLQIVTAAKEMQGHMATYKATSMRAVADFIDLSASEFGVKFGGTKGNVSLVSFDGKYKVQRSIGEHRVFDERIQAAKSKIDDCIKRWSVGSNDHIKALVELSFKVNKQGYIDINQVLSLRQLDIDDTDWRSAMDAIADSIQVMGSTPYLRVYERQDDGTYKQISLDIAKL
MGSDKIHHHHHHMNVLITGMNGTVAPVLADVFRSHHYDITAWDRSVVSTTDSAVMEAFIDRVQPDLLLHIGMGPAEFAETLARLSFERNIPFLFTSTASVYSDEQKGPHDPAIVPAATDEYGAYKRTCERLIQAVNPDAYIVRIGWQIGQAAGSNNMIDYLERHAIAGPIPASTQWYPSCAFLEDTAQTLYTIVTTYTPGLYLANGNASHSFFDIVTALNILHGSKWHITEDNSMTRDDRMTDSRVVIRPISEHLSFVH
MGSDKIHHHHHHMNYLQIARNSLAAEQNALAKLSQNLNQQFNQVVELILNCEGRLVVGGIGKSGLIGKKMVATFASTGTPSFFLHPTEAFHGDLGMLKPIDIVMLISYSGESDDVNKLIPSLKNFGNKIIALTGNLNSTLAKHADYILDISVEREACPNNLAPTTSALVTLALGDALAVSLITARNFQPADFAKFHPGGSLGRRLLCRVKDQMQVRLPKVTENTNFTDCLTVMNEGRMGVALVMENENLKGIITDGDIRRALSANGTNTLNKTAKDLMTSNPKTINYNTYLSEAENFMKEKKIHSLVVVDDQNKVIGLVEFSS
MGSDKIHHHHHHMPAISVQDVSKRFRVFAKPADRLKAAVRHRIGGLAKLVPARLLGTEGASEFHALQHVSFHVQKGETIGIIGRNGSGKSTLLQIICGTLTPSGGRVAINGRVAALLELGAGFNPEFTGRENVYMNAALLGLSKAQIEERLDAIFAFADIGGFVDQPVKTYSSGMYVRLAFAVIAHVDADVLVIDEALAVGDAFFTQKCMRFLRAFMERGTVLFVSHDTNAVVNLCTRVVWLDKGRVREIGPAKDVCDSYLEAFYEEQHCASGRSVRALERSSVVRAIAEGDMRDQRALLINASKLRNDVELFQFTADAKNFGLGGASIEHVGIEDGTGAPLNWVVGGEIVCIRIAVKALQNLERAIVGFIVRDRLGQNLFGDNTYLTTLNEPFAVAAGESFSVRFGFRMPVLPVGDYSVTVAVADGSQSDHVIHQWLHDAVLLKSHSTSVSTGLIGIPMHEIVLERDTLNEVGAAQ
MGSDKIHHHHHHMPAKTLYCATLASLNGLSDNRNATGISFIFQGGAVEEMQKVLVNEKGMAWITCEKCSHTSGIDVSRLSDRAPFIRYKCVKCDAEFDVACEFRKSYRKEVHLNGVFIQQQPREDYAGRIEILDISKTGVRFKTRVKFDFKPGYLLKLSFSLDDAKKTNINQTVEVKWVNGQLVGGEFRNQDHWTSQQLGFYFMS
MGSDKIHHHHHHMPGLPRASGSRFSRRLWSNLTWSGLLSMAVMPRHTSIARPPHGMMDPSGTTVWSYDTQGRIIGKTQVVDGASLVTSYVYDGDGRLASLTYPSGEVINYSWSNGQLTGIFRGTSLIASGITCHPFGPVKSWTLDNGQNIVRNFDLDGRITSYSLGSLAYDAASRITGISRGGISILGNSKTYGYDATDRLISFSDGTSAETYAYDASGNRTGQTINGMAYTYSVSYASNRLDAMAGPGSSLHYSYDANGSLVNDGQRSFGYDASGRLSEAVGLASYSFNGLGQRVKKNAGTVIMFVFDEGGQLIGEYGAAGNPIQETVWLDDVPLAVLRYGTTYYIHTDHLNTPPADS
MGSDKIHHHHHHMPLYLKNHSYGEYVFDWAWANAYERAGHDYYPKLLSAIPFSPVTGKRLLAQTSEQRALLVSTALAIVRKGNAGAGMSSLHCLFPLEHEAREMERAGMMLRCGVQFHWKNRPGRGYENFEDFLGGMSYSKRKKIRQERRKVQDLGIHFEWLSGNDMDEDRWNFFIDCYNNTYREHHSRPYLNLEFFLRLGKSMPENILLILALQNKKPIGVAFNIHNSHTLYGRYWGAREFVPGLHFETCYYQAIQYCIANGLSLFEGGAQGEHKLARGFLPVRTWSAHWLVHSEFAAAIEGYLERETRDIDRYIHALEESAPFRKDARESE
MGSDKIHHHHHHMPRDLPPLNALRAFTAAAKRLSFTQAAEDLGVTQAAVSHQIRGLEDWLGVALFRRRNKQVVMTEAGQVYALAIGQALDEIAEATAALVRNDPRAGMLTISTMPSFAIKWLVQRLGGFINANPDIEVRLHTTRELVNFATEGIDVAIRMTREVGDDLHADLLLEEELFPVCSPALMRGIRPLRQPSDLSQHLLLQDVGISWVSWLDPAGALDVRPARGPGYLDSALAIQACIESQGVMLGRTVMVEDDLKAGRLVEPFTLRVPSPMKYWLVCPPGHLARPGVRAFREWILAEASKWTKARSSAHGVED
MGSDKIHHHHHHMPRGDIGIDLGTASIIVYKRGEGIVLHEPSVVAISEKTGEIVAIGEEAKKMLGKTPEGLKAIRPMKDGVIADYRMIEAIIRNFLKKIIGRFSFVKPSLIIGVPTKITEVEKRAVFEAGLNAGARRVHIVSEPIAAAIGAGIDVMASEGNMVVDIGGGTTDIAVISLGGTVVGESVRMAGDAMDEAIVKFIRKKYGLIIGESTAEEIKKRIGKTHPAFENYEIEIKGRDVVTGLPRTDRVSSEDVREAIEPIIFALLTKLKNVLERTPPELSADIINNGIRLTGGGALLRGLDRTIYDEIHVKTIVADDPITCVARGTGILLEDEKLLKTVCETYSR
MGSDKIHHHHHHMPRVIKHPEIRREDILDHAQALFLTQGYDRASLNDVIASAGISKGAFYHYFASKEALLEALADRFARQALAGVQGVVDDPGLDPLGRLNGLLSQSRQAKIETAAEAWALFETMFRPENLVLFHRINLAANASFSPLLVKIIRQGVEDGTFRTFDPEGVADIVMQFGLATHDVVAKAIAGGSDADMEVAIEVLEKRVRLYEIALDRILGLPDGSIRIGEPGYIRAVMTARRKADKAR
